This is an account of results in the DeepSol protein solubility set.

This series is described as follows: soluble on expression in E. coli; label from the status in PepcDB or PDB records.
For the sequence “MGSDKIHHHHHHMTINFNRIYVIQSLSKANGDELTGQQLFDDVLQYFNTKYGDKDARIFNVDNKKELLHALENIKSHCETDGIKPIIHFEIHGLEDKTGLSLNQEDVNWGDIYVKFIEINAASKWNLFITMGVCFGNYSMLLIRPSLPAPFTGILGSFEELFEWDLYIRYNAFYQELLNSLDFEKALEALHDSNPALPDDYRYINSEQTFKNVYQKYFDTQFSDVKIKERFNLTIAEEKISFTNRNIKRQFYSKFRTNLLNTKKEFFIKDKRKFFMFDVFPGHQYIYCVNWEPNYH”, the “soluble on expression in E. coli” value is on record as “not soluble”.
Turning to “MKSSPKSLKMRDNLLDGTFVVIDLEATGFDVEKSEVIDLAAVRVEGGIITEKFSTLVYPGYFIPERIKKLTGITNAMLVGQPTIEEVLPEFLEFVGDNIVVGHFVEQDIKFINKYTKQYRGKKFRNPSLCTLKLARKVFPGLKKYSLKEIAENFGFETNGVHRALKDATLTAEIFIKILEELWFKYGIGDYYSLKRLEKGKF”, the “soluble on expression in E. coli” value is recorded as “soluble”.
For the sequence “GDVVEAVENAVARVADTIGSGPSNSQAVPALTAVETGHTSQVTPSDTVQTRHVKNYHSRSESSIENFLSRSACVYMGEYHTTNSDQTKLFASWTISARRMVQMRRKLEIFTYVRFDVEVTFVITSKQDQGTQLGQDMPPLTHQIMYIPPGGPIPKSVTDYTWQTSTNPSIFWTEGNAPPRMSIPFISIGNAYSNFYDGWSHFSQNGVYGYNTLNHMGQIYVRHVNGSSPLPMTSTVRMYFKPKHVKAWVPRPPRLCQYKNASTVNFSPTDITDKRNSITYIPDTVKPDVSNH”, the “soluble on expression in E. coli” value is “soluble”.
The entry for “MAHHHHHHMSSPAWSVYEGDWGSFCDDADNVPPTLSLKGCGLRQKCLLQRGAQGAVYLGEDADGNVFVVKRLFTQRSEFGVRGVSEGSLREATLLTYITERSKTLGPEPLFGVIRLERIVEAPFQELSLILERCAFNLSRMVFYSRKRAYSAAGLFPETPTRCPILAKMNVIQYLMRGILKILQFLHEECHIIHRDVKLGNLLVGEDGRVRLADFGSARFMHEPVEKMSDARSGEYTPISLRTTVIYQAPECLLGERSYTAAVDMWAAGVVFAELLLQQHLFHSCSELGMLSDIWKLLGTPSDDPSVCSGEGAVTYAVRTESTIERKFPERIVSAEGLDLLKRMLETNPKKRITDSEALRHPFLCGPAVESGMEEARRLWNKKVEACMQETVAQPAAMGMRSFYVDNVEFDEESGENDDDDGEIATLPTCLDCFPHILSDVNGRHDI” is “not soluble”; for “MNTTVEKQQIITSNTEQWKMYSKLEGKEYQIHISKPKQPAPDSGYPVIYVLDGNAFFQTFHEAVKIQSVRAEKTGVSPAIIVGVGYPIEGAFSGEERCYDFTPSVISKDAPLKPDGKPWPKTGGAHNFFTFIEEELKPQIEKNFEIDKGKQTLFGHSLGGLFALHILFTNLNAFQNYFISSPSIWWNNKSVLEKEENLIIELNNAKFETGVFLTVGSLEREHMVVGANELSERLLQVNHDKLKFKFYEAEGENHASVVPTSLSKGLRFISYV” it is “soluble”; for “MSLIIIISGPPGSGKTSVAIKLANELSYKFISAGKIFRDIAQSMGLDIINLNRVAESNFDIDKMVDKKIHEYVLRERNLIVESHIAGWIFREYTDVAIYLWAPLKIRANRIAIRDKISYVEAVSQIIRREYMHYKRFNKFYGIDINDLSVFDLVINTSNIDINNIVKLILDYLSSVSHNEGHHHHHH” it is “soluble”.
Take “MGSDKIHHHHHHMLLYIHGFNSSPFSDKAIMTAQYMAQHHPSVLFHQPQLPNTPKAAMALLLEYVEAALKDDEPLTYIGSSLGGYFASYLAEHYGGRAVLVNPAVKPFELFDEFMGPQFNPYTGENYQVLPEHKMEVAEFNTPVIRNPDRFLVLLQSGDEVLDYREALSKYHHCQLRIEAAGDHSFVGYEHYLQTISQFLHLP”: the “soluble on expression in E. coli” value was “not soluble”.
As to “MGSDKIHHHHHHMTARTSALAIEIDRQDRSPIYLQICERFRTAIAAGHLRPGDRVPALRGLALQLNTARGTVEMAYTILVDEGYLQMRGAAGTFVSASLPASVTRPARGGDREQPPAREQGATKSSHALRGRQPATRQLAIAVAMSGEPKLLQPGLPALDAFPRKLWNRLVSRCARSGERAMLAYPDPVGYRALREHIATYLGLSRGVACVPEQVFITAGYRATLELVLRSLASPNDRMWFEDPGYLLARGFLAEVGVNLVPVPIDSEGIDVDRGIALDPLARFALVTPSHQAPLGYTLSLARRMALLDWAAKGSSWIIEDDYDSEFRYVGRPLPALKSLDKDDRVIYCGTFSKVMFPGLRLAYAVVPERAVERVERVACSMNAGSPTLLQAAVADFIEQGHFARHVKRMRALYGQRRTLIAHALEQAFGERMLVELPHGGIQFAVQFAEGPDGPVDDVAVAARARDAGLAVVPLSIWYANGRTRRTPRGLVMGFANVTDAREALRLARTLYGCLTG”, the “soluble on expression in E. coli” value was “not soluble”.
Turning to “REEYYVWDKEASINFIKPGQSDLFAEFEITDGMLDEIYQMTRNGEKCFPEFITHVKDKQGNVVSEVQRKLYVRKKPQYREEEAVTEVP”, the “soluble on expression in E. coli” value was “not soluble”.
The entry for “MAKSRTIYVCAECGGTSLKWQGKCPHCSAWNTLEETVESAASSAGGHRYAPLAAASPVRSLSEIEARETPRQPTGLDEFDRVLGGGLVAGAVVLIGGDPGIGKSTLLLQALASLSATTKVLYVTGEESAEQVALRARRLGLQTGNVDLLAEIRLEAIQAAVSEQKPTVAVIDSIQTLYSGELTAAPGSVSQVRECAAQLTRLAKQTGIAIVMIGHVTKDGALAGPRVLEHIVDTVLYFEGDTHSSFRLVRAFKNRFGAVNELGVFAMTDRGLRGVANPSALFLSQHQQQVAGSCVLATQEGTRPLLVEVQALVDTSHAPNPRRLTVGLEGNRLAMLLAVMHRHAGVSTYDQDVFVNAVGGVRITEPAADLPVLLAIMSSLRDKPLPAGLVAFGEIGLAGEIRPAPRGQERLREAAKLGFSVALIPKANAPRQPIEGLEIWAVDRLDAALDKLRLEHHHHHH” is “not soluble”; for “MGSDKIHHHHHHMKSILLFMIFVVCQLEGKKFSQDNFKVDYNYYLRKQDLHIIKTQNDLSNSWYLPPQKAPKEHSWVDFAKKYLNMMDYLGTYFLPFYHSFTPIFQWYHPNINPYQRNEFKFQISFRVPVFRHILWTKGTLYLAYTQTDWFQIYNDPQSAPMRMMNFMPELIYVYPINFKPFGGKIGNFSEIWIGWQHISNGVGGAQCYQPFNKEGNPENQFPGQPVIVKDYNGQKDVRWGGCRSVSAGQRPVFRLVWEKGGLKIMVAYWPYVPYDQSNPNLIDYMGYGNAKIDYRRGRHHFELQLYDIFTQYWRYDRWHGAFRLGYTYRINPFVGIYAQWFNGYGDGLYEYDVFSNRIGVGIRLNP” it is “not soluble”.
Turning to “SLDARLWLERIRELPIPDGIRIMNVCGGHERSISMAGLRTALPPAIRLIPGPGCPVCICPEEDIYQAIRLGLEGEAVVATFGDMLRVPVNLGRQAVRTLEQAKAAGADIRPIASPIEARIIAEKAAGKPVVLFAVGFETTMAPVAALMAEGLPDNLYILCSGRLTWPAVKLLLDSDECVLDALVAPGHVATVMGPEEWAFVADDYRLPVAIAGFTPASLLRAIHSTIVQWLEETPRLDNCYPEAVKPGGNPKAREFLDRSFDVAAGNWRGIGPIAASAYALKPGFAAHDARLHFPDYDAGDRRHAGEMPAGCDCARVVLGRIQPDECRIYGKPCSPRSPVGPCMVSDEGACRIWWAAGVRKDSAAA”, the “soluble on expression in E. coli” value is listed as “not soluble”.
Turning to “MELWGRMLWALLSGPGRRGSTRGWAFSSWQPQPPLAGLSSAIELVSHWTGVFEKRGIPEARESSEYIVAHVLGAKTFQSLRPALWTQPLTSQQLQCIRELSSRRLQRMPVQYILGEWDFQGLSLRMVPPVFIPRPETEELVEWVLEEVAQRSHAVGSPGSPLILEVGCGSGAISLSLLSQLPQSRVIAVDKREAAISLTHENAQRLRLQDRIWIIHLDMTSERSWTHLPWGPMDLIVSNPPYVFHQDMEQLAPEIRSYEDPAALDGGEEGMDIITHILALAPRLLKDSGSIFLEVDPRHPELVSSWLQSRPDLYLNLVAVRRDFCGRPRFLHIRRSGP”, the “soluble on expression in E. coli” value is reported as “soluble”.
Take “MAHHHHHHMNVAKREFIRGMMAHYRASLPPPEHSVVIHELQKRVLDIGMLAVNKAHVELFGSHVSGFCTPHSDADISLTYRNFSPWLQGMERVDEQNNKRMTRFGKEASAMGMEDVRYIRARIPVVQFTDGVTGIHCDVSIGNIGGVENSKILCAIRQVFPDFYGAYIHLVKAWGKAREVIAPERSTFNSFTVTTMALMVLQELGLLPVFSKPTGEFGELTVADAEMLLQEFKLPPIYDSLHDDDEKLGEAVFFCLQRFAEYYAKYDFSAGTVSLIHPRRHRTVYERVVRRHLELLGSRKRLEWEKHIAEHKEDGPLDENDFSASMQNETTQRPSNSPYVVEDFVNYVNCGRRVQASRVRHIQQEFNRLREMLIDKESELKFDEVFRESDTVPRFQGFEGVGTRDHRVKTFRPQ”: the “soluble on expression in E. coli” value is on record as “not soluble”.
As to “MGSDKIHHHHHHMGKTLAEKIFSEHVGRDVKAGEIVLARVDIAMAQDGTGPLMINEFRELGFKEVKVPKAFLFIDHASPSPRKELSNSQKMMREFGKEMGVKVFDAGDGISHQILAEKYVKPGDLVAGADSHTCTAGGLGAFGTGMGSTDVAIIFGLGQNWFKVPETIKVVVNGKLQDGVYAKDIILEIARILGSDGATYKALEFHGSCIENMNVEDRLTISNMAVEVGAKAGLMPSDEKTREFLKKMGREEDFRELKADPDAVYETEIEIDATTLEPLVSLPHYVDNVRKVSEVEKEKIKIDQVFIGTCTNGRLQDLEIALKILEKHGKHPDVRLIVGPASRKVYMDALEKGIIKKFVELGAAVIPPGCGPCVGIHMGVLGDGERVLSTQNRNFKGRMGNPNAEIYLASPATAAATAVTGYITDPRRFI”, the “soluble on expression in E. coli” value was “not soluble”.
The entry for “MGSDKIHHHHHHMAPYPYKVQTTVPELQYENFDGAKFGYMFWPVQNGTNEVRGRVLLIHGFGEYTKIQFRLMDHLSLNGYESFTFDQRGAGVTSPGRSKGVTDEYHVFNDLEHFVEKNLSECKAKGIPLFMWGHSMGGGICLNYACQGKHKNEISGYIGSGPLIILHPHTMYNKPTQIIAPLLAKFLPRVRIDTGLDLKGITSDKAYRAFLGSDPMSVPLYGSFRQIHDFMQRGAKLYKNENNYIQKNFAKDKPVIIMHGQDDTINDPKGSEKFIQDCPSADKELKLYPGARHSIFSLETDKVFNTVFNDMKQWLDKHTTTEAKP” is “not soluble”; for “MSLTSKMMAFLPYFLELKGKRVNIQALINDRVSQAIEAAGAPAGTPALVRQSAKAQFGDYQANGIMGAAKQLGTNPREFAQKVLDVLNLEGIASKTEIAGPGFINIFLSEEFLAAQAEAALADARLGVAQEAPKTIVADYSAPNVAKEMHVGHLRSTIIGDAVVRTLEFLGHKVIRANHIGDWGTQFGMLIANLERVQKASGEVSMELSDLEAFYRESKKLYDEDEQFAETARNYVVKLQGGDPFCLEMWKKLVDVTMIQNQRNYDRLNVSLTRENVMGESMYNDMLPQIVSDLKAKGLAVEDDGAQVVFLEEFKNKDGEPMGVIIQKRDGGFLYTTTDIACAKYRYETLGADRVLYFIDSRQHQHLMQAWTIVRKAGYIPENVSLEHHAFGMMLGKDGRPFKTRAGGTVRLADLLDEAQERAKALIESKNPELSAEEKANIANTVAMAAVKYADLSKHRTTDYVFDWDNMLAFEGNTAPYMQYAYTRVASVFAKAGVDMNELTGHIQITEEKEKALIAKLLQFEEAVQSVAREGQPHIMCSYLFELAGIFSSFYEACPILVAEQESIKQSRLKLAALTAKTIKQGLALLGIDTLERMEGHHHHHH” it is “soluble”; for “MGSDKIHHHHHHMRDFLKSAFGRSKPKQLRILPQDVTIEIGQGQTLLEAALANGIAYPHDCTVGTCASCKTRLKQGRVREATPFGYTLSKDELDAGYILACQAFPKDELTVVEIDSSAGDLMPAEKYTANIIATEPLTHDILRVTVQTDRAVSYAAGQYANLRKAGGGRARSYSFANAPQRKGRTLLEFYIRKVPGGEFTESLFGGELKGVSLEMEAPLGTFHLRAGDSHMVCIAGGSGLAPLVSILEHARGNRIKRDCTLLFGARTQADLYQLDAIGSIASNWQGDFRFIPVLSDEPLDSDWKGARGLVTDHIAPGFCEGGEGYLCGPPLMIDAAIASLAKHGIPLEKVFYDKFTDSRDR” it is “not soluble”.
